Experiments:
[1] = test system: T1, CCCc1ccc(O)c(OC)c1; test: purified protein; type: biochemical, Rhodococcus jostii; settings: 50 mM KPi pH 7.5, 10% v/v DMSO, 10 µM to 1 mM substrate, O2 co-substrate
T1 construct: full length, 526 residues, C-terminal His6 tag (pBAD-EUGO-His6x), E. coli NEB10beta; covalent FAD; homodimer; mutants for crystals from His-SUMO fusion, tag cleaved

[2] = test system: T2, COc1cc(CO)ccc1O; test: purified protein; type: biochemical, Rhodococcus jostii; settings: 50 mM KPi pH 7.5, O2 co-substrate, 0.05 µM enzyme
T2 construct: full length, 526 residues, C-terminal His6 tag (pBAD-EUGO-His6x), E. coli NEB10beta; covalent FAD; homodimer; mutants for crystals from His-SUMO fusion, tag cleaved

EUGO (eugenol oxidase) (Rhodococcus jostii RHA1; A423M/D151E/H434Y/I445D/S394V/S518P/S81H)
Km ([1]; 1.0 µM enzyme): 3.0 ± 0.2 µM
kcat ([1]; 1.0 µM enzyme): 0.08 ± 0.002 s⁻¹
Km [2]: 2.9 ± 0.2 µM
kcat [2]: 0.15 ± 0.002 s⁻¹

EUGO (eugenol oxidase) (Rhodococcus jostii RHA1; A423M/H434Y/I445D/S518P/S81H)
Km [2]: 177.6 ± 15.8 µM
kcat [2]: 4.8 ± 0.2 s⁻¹

EUGO (eugenol oxidase) (Rhodococcus jostii RHA1; A423M/H434Y/I445D/S394V/S518P/S81H)
Km ([1]; 1.0 µM enzyme): 3.4 ± 0.4 µM
kcat ([1]; 1.0 µM enzyme): 0.028 ± 0.0003 s⁻¹
Km [2]: 7.1 ± 0.6 µM
kcat [2]: 0.075 ± 0.001 s⁻¹

EUGO (eugenol oxidase) (Rhodococcus jostii RHA1; A423M/D151E/H434Y/I445D/Q425S/S394V/S518P/S81H)
Km ([1]; 100 nM enzyme): 7.4 ± 0.4 µM
kcat ([1]; 100 nM enzyme): 0.43 ± 0.007 s⁻¹
Km [2]: 94.9 ± 7.8 µM
kcat [2]: 2.8 ± 0.07 s⁻¹
